The RNAGym collection of RNA variant scans (doi:10.7554/elife.90254)

B1: LINE1-full (parent)
chain: UACGUAGGUGGUUUUCCCCUGAUAGUGCUAAGGGGGCCUGGAAGUUUGGACUGGGCAGAGCUCAACACAGCGUGGCAAAGUGGCUGUGGCUAGACUGCCUCUCUGGAUUCCUCGUCACUCAGCAGGGCAUCUCUGAGAGAAAUGCC

Variants of: B1
Assay: self-cleavage, relative activity (ratio to wild type); higher = more cleavage; in vitro, sequencing; the parent is a self-cleaving ribozyme
Work on UACGUAGGUGGUUUUCCCCUGAUAGUGCUAAGGGGGCCGGGAAGUUUGGACUGGGCAGAGCUCAACGCAGCGUGGCAAAGUGGCUGUGGCUAGACUGCCUCUCUGGAUUCCUCGUCACUCAGCAGGGCAUCUCUGAGAGAAAUGCC yielded a self-cleavage of 1.2. With UACGUAGGUGGUUUUCCCCUGAUAGUGCUAAGGGGGCCCGGAAGUUUGGACUGGGCAGAGCUCAACACAGCGUGGCAAAGUGGCUGUGGCUAGACUGCCUCUCUGGAUUCCUCGUCACUCAGCAGGGCAUCCCUGAGAGAAAUGCC the self-cleavage was 1.32. In the case of UACGUAGGUGGUUUUCCCCUGAUAGUGCUAAGGGGGCCCGGAAGUUUGGACUGGGCAGAGCUCAACACAGCGUGGCAAAGUGGCUGUGGCUAGACUGCCUCUCUGGAUUCCUCGUCACUCAGCAGGGCAUCACUGAGAGAAAUGCC, the self-cleavage is reported as 1.46. In the case of UACGUAGGUGGUUUUCCCCUGAUAGUGCUAAGGGGGCCCGGAAGUUUGGACUGGGCAGAGCUCAACACAGCGUGGCAAAGUGGCUGUGGCUAGACUGCCUCUCUGGAUCCCUCGUCACUCAGCAGGGCAUCUCUGAGAGAAAUGCC, the self-cleavage is reported as 1.49. With UACGUAGGUGGUUUUCCCCUGAUAGUGCUAAGGGGGCCCGGAAGUUUGGACUGGGCAGAGCUCAACACAGCGUGGCAAAGUGGCUGUGGCUAGACUGCCUCUCUGGAUGCCUCGUCACUCAGCAGGGCAUCUCUGAGAGAAAUGCC the self-cleavage was 0.74. UACGUAGGUGGUUUUCCCCUGAUAGUGCUAAGGGGGCCGGGAAGUUUGGACUGGGCAGAGCUCAGCACAGCGUGGCAAAGUGGCUGUGGCUAGACUGCCUCUCUGGAUUCCUCGUCACUCAGCAGGGCAUCUCUGAGAGAAAUGCC showed a self-cleavage of 0.15. In the case of UACGUAGGUGGUUUUCCCCUGAUAGUGCUAAGGGGGCCCGGAAGUUUGGACUGGGCAGAGCUCAACACAGCGUGGCAAAGUGGCUGUGGCUAGACUGCCUCUCUGGACUCCUCGUCACUCAGCAGGGCAUCUCUGAGAGAAAUGCC, the self-cleavage is reported as 1.92. Work on UACGUAGGUGGUUUUCCCCUGAUAGUGCUAAGGGGGCCCGGAAGUUUGGACUGGGCAGAGCUCAACACAGCGUGGCAAAGUGGCUGUGGCUAGACCGCCUCUCUGGAUUCCUCGUCACUCAGCAGGGCAUCUCUGAGAGAAAUGCC yielded a self-cleavage of 0.05. Variant UACGUAGGUGGUUUUCCCCUGAUAGUGCUAAGGGGGCCCGGAAGUUUGGACUGGGCAGAGCUCAACACAGCGUGGCAAAGUGGCUGUGGCUAGACAGCCUCUCUGGAUUCCUCGUCACUCAGCAGGGCAUCUCUGAGAGAAAUGCC has a self-cleavage of 0.08. In the case of UACGUAGGUGGUUUUCCCCUGAUAGUGCUAAGGGGGCCCGGAAGUUUGGACUGGGCAGAGCUCAACACAGCGUGGCAAAGUGGCUGCGGCUAGACUGCCUCUCUGGAUUCCUCGUCACUCAGCAGGGCAUCUCUGAGAGAAAUGCC, the self-cleavage is reported as 0.17. With UACGUAGGUGGUUUUCCCCUGAUAGUGCUAAGGGGGCCCGGAAGUUUGGACUGGGCAGAGCUCAACACAGCGUGGCAAAGUGGCUGUGGCUAGACUGCCUCACUGGAUUCCUCGUCACUCAGCAGGGCAUCUCUGAGAGAAAUGCC the self-cleavage was 1.03. Work on UACGUAGGUGGUUUUCCCCUGAUAGUGCUAAGGGGGCCCGGAAGUUUGGACUGGGCAGAGCUCAACACAGCGUGGCAAAGUGGCUGUGGCUAGACUGCCUCUCCGGAUUCCUCGUCACUCAGCAGGGCAUCUCUGAGAGAAAUGCC yielded a self-cleavage of 1.77. Work on UACGUAGGUGGUUUUCCCCUGAUAGUGCUAAGGGGGCCGGGAAGUUUGGACUGGGCAGAGCUCAACACAGCGUGGCAAAGUGGCUGUGGCUAGACUGCCUCUCUGGAUUCCUCGUCACUCAGCAGGGCAUCUCUGAGAGAAAUGCC yielded a self-cleavage of 1.46. Variant UACGUAGGUGGUUUUCCCCUGAUAGUGCUAAGGGGGCCGGGAAGUUUGGACUGGGCAGAGCUCGACACAGCGUGGCAAAGUGGCUGUGGCUAGACUGCCUCUCUGGAUUCCUCGUCACUCAGCAGGGCAUCUCUGAGAGAAAUGCC has a self-cleavage of 0.09. Work on UACGUAGGUGGUUUUCCCCUGAUAGUGCUAAGGGGGCCGGGAAGUUUGGACUGGGCAGAGCUCAACACAGCGUGGCAAAGUGGCUGUGGCUUGACUGCCUCUCUGGAUUCCUCGUCACUCAGCAGGGCAUCUCUGAGAGAAAUGCC yielded a self-cleavage of 1.06. With UACGUAGGUGGUUUUCCCCUGAUAGUGCUAAGGGGGCCGGGAAGUUUGGACUGGGCAGAGCUCAACACAGCGUGGCAAAGUGGCUGUGGCUGGACUGCCUCUCUGGAUUCCUCGUCACUCAGCAGGGCAUCUCUGAGAGAAAUGCC the self-cleavage was 0. Work on UACGUAGGUGGUUUUCCCCUGAUAGUGCUAAGGGGGCCCGGAAGUUUGGACUGGGCAGAGCUCAACACAGCGUGGCAAAGUGGCUGUGGCAAGACUGCCUCUCUGGAUUCCUCGUCACUCAGCAGGGCAUCUCUGAGAGAAAUGCC yielded a self-cleavage of 0.39. In the case of UACGUAGGUGGUUUUCCCCUGAUAGUGCUAAGGGGGCCCGGAAGUUUGGACUGGGCAGAGCUCAACACAGCGUGGCAAAGUGGCUGUGGCUAGACUGCCUCUCUGGAUUCCCCGUCACUCAGCAGGGCAUCUCUGAGAGAAAUGCC, the self-cleavage is reported as 1.24. UACGUAGGUGGUUUUCCCCUGAUAGUGCUAAGGGGGCCCGGAAGUUUGGACUGGGCAGAGCUCAACACAGCGUGGCAAAGUGGCUGUGGCUAGACUGCCUCUCUGGAUUCCUCGUCACUCAGCAGGGCAUCUCUGAGAGAAAAGCC gave a self-cleavage of 1.01. Work on UACGUAGGUGGUUUUCCCCUGAUAGUGCUAAGGGGGCCCGGAAGUUUGGACUGGGCAGAGCUCAACACAGCGUGGCAAAGUGGCUGUGGCUAGACUGCCUCUCUGGAUUCCUCGUCACUCAGCAGGGCAUCUCUGAGAGAAACGCC yielded a self-cleavage of 1.33.
